Experimental data from paper PMC5461033 (The Journal of Cell Biology, 2017).

Molecular target: T1, FLAG-Sec16 (1,101–1,600 aa) (human, UniProt O15027-4 1101-1600)
T1 sequence: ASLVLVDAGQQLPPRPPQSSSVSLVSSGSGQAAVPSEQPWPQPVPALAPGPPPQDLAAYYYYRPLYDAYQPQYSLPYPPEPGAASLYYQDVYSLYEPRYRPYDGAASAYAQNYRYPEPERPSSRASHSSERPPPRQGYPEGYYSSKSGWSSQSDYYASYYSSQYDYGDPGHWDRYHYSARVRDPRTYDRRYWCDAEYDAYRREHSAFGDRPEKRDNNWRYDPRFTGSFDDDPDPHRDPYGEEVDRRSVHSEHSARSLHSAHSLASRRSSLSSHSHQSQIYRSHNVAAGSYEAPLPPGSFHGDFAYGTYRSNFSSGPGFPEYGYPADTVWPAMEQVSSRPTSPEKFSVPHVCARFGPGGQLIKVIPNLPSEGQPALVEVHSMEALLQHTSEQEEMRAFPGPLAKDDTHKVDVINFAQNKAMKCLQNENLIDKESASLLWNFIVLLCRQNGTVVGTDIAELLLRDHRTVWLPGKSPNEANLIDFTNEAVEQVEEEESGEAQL
Experiment: pull-down

B1: GST-tagged TANGO1-PRD (1,651–1,907 aa) (domain or fragment)
chain: NTQNPPRRGPLSQNGSFGPSPVSGGECSPPLTVEPPVRPLSATLNRRDMPRSEFGSVDGPLPHPRWSAEASGKPSPSDPGSGTATMMNSSSRGSSPTRVLDEGKVNMAPKGPPPFPGVPLMSTPMGGPVPPPIRYGPPPQLCGPFGPRPLPPPFGPGMRPPLGLREFAPGVPPGRRDLPLHPRGFLPGHAPFRPLGSLGPREYFIPGTRLPPPTHGPQEYPPPPAVRDLLPSGSRDEPPPASQSTSQDCSQALKQSP
B1: binds.

B2: GST-tagged TANGO1-PRDΔ60 (1,651–1,847 aa) (domain or fragment)
chain: NTQNPPRRGPLSQNGSFGPSPVSGGECSPPLTVEPPVRPLSATLNRRDMPRSEFGSVDGPLPHPRWSAEASGKPSPSDPGSGTATMMNSSSRGSSPTRVLDEGKVNMAPKGPPPFPGVPLMSTPMGGPVPPPIRYGPPPQLCGPFGPRPLPPPFGPGMRPPLGLREFAPGVPPGRRDLPLHPRGFLPGHAPFRPLGS
B2: binds.
